We go through three molecules from CN114395035A (JIANGSU MICKEE MEDICAL TECH CO LTD; INST OF MICROBIOLOGY OF …, dated 2022).

What is called Kd is the equilibrium constant for the complex coming apart. Read a low Kd as tighter binding.

Test [1] concerns the target T1, SARS-CoV-2 Delta variant RBD蛋白 (SARS-CoV-2, UniProt P0DTC2 319-541).
T1 construct: domain: RBD
Kind of test: SPR (Biacore 8K).

In test [2] the target is SARS-CoV-2 Omicron variant RBD蛋白 (Omicron新型冠状病毒RBD蛋白) (SARS-CoV-2, UniProt P0DTC2 319-541). Kind of test: SPR (Biacore 8K).
Test [3] has as its target SARS-CoV-2 Beta variant RBD蛋白 (Beta型新型冠状病毒刺突蛋白受体结合域段RBD蛋白) (SARS-CoV-2, UniProt P0DTC2 319-541). The test is described as follows: SPR (Biacore 8K).
For test [4], the target named is T2, SARS-CoV-2 Alpha variant RBD蛋白 (SARS-CoV-2, UniProt P0DTC2 319-541).
T2 construct: domain: RBD
The test is described as follows: SPR (Biacore 8K).

The target in test [5] is T3, Omicron BA.2-RBD (SARS-CoV-2, UniProt P0DTC2 319-541).
T3 construct: domain: RBD
Kind of test: lateral-flow sandwich, gold-labelled IMCAS-364 as detector (Table 4).

In test [6] the target is T4, Omicron BA.1-RBD (SARS-CoV-2, UniProt P0DTC2 319-541).
T4 construct: domain: RBD
The test is described as follows: lateral-flow sandwich, gold-labelled IMCAS-364 as detector (Table 5).

B1: IMCAS-123抗体 (全抗IgG1) (antibody, V domains shown)
VH: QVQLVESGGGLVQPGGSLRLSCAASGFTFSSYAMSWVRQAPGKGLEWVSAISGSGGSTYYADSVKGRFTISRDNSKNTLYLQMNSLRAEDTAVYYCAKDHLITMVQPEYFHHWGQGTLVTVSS
VL: DIQMTQSPSSVSASVGDSVTITCRASQGISRWLAWYQQRPGKAPKLLIYAAGNLETGVPSRFSGSGSGTDFTLTISDLQAEDFATYYCQQADSFPLTFGGGTKVDIKR
notes: also called T1线抗体
Consider B1, for which the equilibrium dissociation constant (Kd) in test [1] is 0.48 nM; in test [2] it was 1.41 nM; in test [3], 0.32 nM; in test [4], 0.15 nM.

B2: IMCAS-364抗体 (全抗IgG1) (antibody, V domains shown)
VH: QVQLQESGGGVVQPGRSLRLSCAASGFTFSRYGMHWVRQAPGKGLEWVAVIWYDGSNKYYADSVKGRFTISRDNSKNTLYLQMNSLRADDTAVYYCAKQEGTYCSGGSCYSGLDYWGQGTLVTVSS
VL: not shown
notes: also called 金标抗体 (胶体金标记)
B2: the equilibrium dissociation constant (Kd) is 2.19 nM in test [2], 1.07 nM in test [3] and 1.06 nM in test [4].

B3: IMCAS-72抗体 (全抗IgG1) (antibody, V domains shown)
VH: QVQLVESGGGLVQPGGSLRLSCAASGFTFSSYGMHWVRQAPGKGLEWVAVISYDGSDKYYADSVKGRFTISRDNSKNTLYLQMNSLRAEDTAVYYCARDRDRFGDQGGWFDPWGQGTLVTVSS
VL: not shown
notes: also called T2线抗体
B3 returned a Kd in test [1] of 0.62 nM. Also, the binding result was “no binding (tested: IMCAS-72 0.8mg/mL on the T2 line)” in test [5] and “no binding (tested: IMCAS-72 2mg/mL on the T2 line)” in test [6].
